Article doi:10.1101/317651, “Poly(ADP-ribose) polymerase 1 Searches DNA via a ‘Monkey Bar’ Mechanism”

How the values were obtained:
Details in all cases: protein: recombinant; tags: His tag (Ni-NTA, pET28a); blunt
[1] = target: PARP1 W589A (Homo sapiens, UniProt P09874 1-1014, W589A); test: stopped-flow fluorescence anisotropy; K1; kinetically derived, Scheme 2 (no ternary complex); 50 mM Tris-HCl pH 7.5, 50 mM NaCl, 1 mM MgCl2, 0.1 mM EDTA, 0.01% IGEPAL; 20 °C (stated for association)
[2] = target: PARP1 wild-type (Homo sapiens, UniProt P09874 1-1014); test: stopped-flow fluorescence anisotropy; K1, first DNA; kinetically derived; 50 mM Tris-HCl pH 7.5, 50 mM NaCl, 1 mM MgCl2, 0.1 mM EDTA, 0.01% IGEPAL; 20 °C (stated for association)
Chain of PARP1 wild-type (P09874 whole entry): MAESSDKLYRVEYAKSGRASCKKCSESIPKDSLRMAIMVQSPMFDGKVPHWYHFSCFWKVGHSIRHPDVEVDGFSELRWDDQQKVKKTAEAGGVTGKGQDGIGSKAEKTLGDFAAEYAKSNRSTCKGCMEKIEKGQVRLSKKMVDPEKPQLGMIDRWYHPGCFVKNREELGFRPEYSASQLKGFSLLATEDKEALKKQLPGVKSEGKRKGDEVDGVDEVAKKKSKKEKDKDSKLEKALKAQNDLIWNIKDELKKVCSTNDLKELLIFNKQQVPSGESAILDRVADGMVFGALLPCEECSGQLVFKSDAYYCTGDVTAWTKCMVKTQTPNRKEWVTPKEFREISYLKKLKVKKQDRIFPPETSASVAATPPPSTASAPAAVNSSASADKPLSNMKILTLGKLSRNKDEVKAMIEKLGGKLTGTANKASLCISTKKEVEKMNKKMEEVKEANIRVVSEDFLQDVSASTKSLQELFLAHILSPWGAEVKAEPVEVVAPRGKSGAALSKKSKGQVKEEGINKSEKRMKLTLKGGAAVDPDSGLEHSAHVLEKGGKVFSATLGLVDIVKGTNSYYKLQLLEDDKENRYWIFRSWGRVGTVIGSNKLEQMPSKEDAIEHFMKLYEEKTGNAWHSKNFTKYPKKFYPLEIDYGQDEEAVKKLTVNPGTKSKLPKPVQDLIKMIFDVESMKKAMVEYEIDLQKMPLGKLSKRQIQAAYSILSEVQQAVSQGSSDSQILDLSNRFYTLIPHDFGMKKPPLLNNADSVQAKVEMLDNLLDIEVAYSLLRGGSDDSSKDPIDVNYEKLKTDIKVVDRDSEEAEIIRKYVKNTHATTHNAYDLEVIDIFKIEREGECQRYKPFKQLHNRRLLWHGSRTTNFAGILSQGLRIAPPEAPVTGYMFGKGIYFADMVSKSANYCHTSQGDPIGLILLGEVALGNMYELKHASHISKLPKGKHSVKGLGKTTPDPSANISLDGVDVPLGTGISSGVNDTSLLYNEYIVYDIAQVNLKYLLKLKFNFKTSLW

[3] = target: PARP1 ΔZn1 (Homo sapiens, UniProt P09874 1-1014, del2-96); test: as above
Chain of PARP1 ΔZn1 (P09874 other isoform, or with tags, fused parts or gaps del2-96 | mutant): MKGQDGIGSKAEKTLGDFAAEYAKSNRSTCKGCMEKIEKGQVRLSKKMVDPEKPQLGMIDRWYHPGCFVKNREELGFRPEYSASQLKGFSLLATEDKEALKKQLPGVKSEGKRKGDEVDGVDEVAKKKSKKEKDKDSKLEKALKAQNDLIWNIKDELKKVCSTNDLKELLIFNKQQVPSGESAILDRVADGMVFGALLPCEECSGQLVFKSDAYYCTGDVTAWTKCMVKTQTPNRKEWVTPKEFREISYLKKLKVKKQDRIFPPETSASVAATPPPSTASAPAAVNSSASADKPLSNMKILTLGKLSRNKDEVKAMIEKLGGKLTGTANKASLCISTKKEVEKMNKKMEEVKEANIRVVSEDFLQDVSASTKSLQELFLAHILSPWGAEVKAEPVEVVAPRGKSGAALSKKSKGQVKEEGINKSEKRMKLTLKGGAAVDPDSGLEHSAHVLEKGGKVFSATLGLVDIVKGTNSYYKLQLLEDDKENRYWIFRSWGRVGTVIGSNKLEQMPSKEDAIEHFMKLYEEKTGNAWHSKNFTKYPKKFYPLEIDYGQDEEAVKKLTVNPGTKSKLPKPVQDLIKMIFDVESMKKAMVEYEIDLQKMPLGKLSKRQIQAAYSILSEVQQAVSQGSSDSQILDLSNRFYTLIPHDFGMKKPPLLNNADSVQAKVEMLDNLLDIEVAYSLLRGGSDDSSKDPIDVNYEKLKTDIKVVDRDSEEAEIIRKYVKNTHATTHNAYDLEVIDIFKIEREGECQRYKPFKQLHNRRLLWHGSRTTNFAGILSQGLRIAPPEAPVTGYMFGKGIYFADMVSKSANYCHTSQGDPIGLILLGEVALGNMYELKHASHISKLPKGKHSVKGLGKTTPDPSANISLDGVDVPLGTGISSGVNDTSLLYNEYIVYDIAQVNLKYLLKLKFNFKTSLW

Chain of PARP1 W589A (P09874 whole entry W589A): as the sequence (P09874 whole entry) above, with W589A counted along it

B1: p18mer* (dsDNA)
DNA 1: GGGTTGCGGCCGCTTGGG
DNA 2: CCCAAGCGGCCGCAACCC
modifications: 5'-phosphate
- Kd [1]: 4.9 ± 1.1 nM
- Kd [2]: < 3.2 nM
- Kd [3]: < 2.7 nM
